Test results published in patent publication US20210338833A1 (MIT, published 2021).
Values belong to the binder of their own block, whether it stands above or below them. Bridge positions count the residues as written; N and C are the ends. Ends that are not written are not given here. * marks the point of attachment. Biotin = O=C1N[C@H]2[C@H](CS[C@H]2CCCCC(=O)*)N1

T1: FMC63 Mimotope Mutant RLCPWSAACREL
T1 construct: also called G9 with two alanines inserted between the cysteines
T1 peptide: RLCPWSAACREL

T2: FMC63 Mimotope Mutant RLCPWSACREL
T2 construct: also called G9 with one alanine inserted between the cysteines
T2 peptide: RLCPWSACREL

T3: biotinylated F12 mimotope RICPWNCKEL (no flanking residues) (not fully specified (bridges); cysteine pairing not given here)
T3 construct: Free peptide loaded on a streptavidin coated plate for ELISA; also called Bio-F12; F12 without flanking residues
T3 peptide: Biotin-RICPWNCKEL

T4: biotinylated F12 derivative SASRICPWNCKEL (not fully specified (bridges); cysteine pairing not given here)
T4 construct: Free peptide loaded on a streptavidin coated plate for ELISA
T4 peptide: Biotin-SASRICPWNCKEL

T5: biotinylated F12 derivative GGGSASRICPWNCKEL (not fully specified (bridges); cysteine pairing not given here)
T5 construct: Free peptide loaded on a streptavidin coated plate for ELISA
T5 peptide: Biotin-GGGSASRICPWNCKEL

T6: biotinylated F12 derivative GGSGGGGSASRICPWNCKEL (not fully specified; biotinylated on the N-terminus)
T6 construct: Free peptide loaded on a streptavidin coated plate for ELISA
T6 peptide: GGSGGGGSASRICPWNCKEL

T7: biotinylated F12 derivative GSGGGGSGGGGSASRICPWNCKEL (not fully specified; biotinylated on the N-terminus)
T7 construct: Free peptide loaded on a streptavidin coated plate for ELISA
T7 peptide: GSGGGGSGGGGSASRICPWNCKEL

T8: biotinylated F12 derivative GGGGSGGGGSGGGGSASRICPWNCKEL (not fully specified; biotinylated on the N-terminus)
T8 construct: Free peptide loaded on a streptavidin coated plate for ELISA
T8 peptide: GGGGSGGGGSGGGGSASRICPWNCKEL

T9: FMC63 Mimotope (G9) RLCPWSCREL
T9 construct: Parent of the alanine scan
T9 peptide: RLCPWSCREL

T10: FMC63 Mimotope Mutant RLCPWSCREA
T10 construct: also called G9 X5 (Leu 10) to Ala
T10 peptide: RLCPWSCREA

T11: FMC63 Mimotope Mutant RLCPWSCRAL
T11 construct: also called G9 X4 (Glu 9) to Ala
T11 peptide: RLCPWSCRAL

T12: FMC63 Mimotope Mutant RLCPWSCAEL
T12 construct: also called G9 X3 (Arg 8) to Ala
T12 peptide: RLCPWSCAEL

T13: FMC63 Mimotope Mutant RLCPWACREL
T13 construct: also called G9 X2 (Ser 6) to Ala
T13 peptide: RLCPWACREL

T14: FMC63 Mimotope Mutant RACPWSCREL
T14 construct: also called G9 X1 (Leu 2) to Ala
T14 peptide: RACPWSCREL

T15: FMC63 Mimotope (C5) RMCPWSCYEL
T15 peptide: RMCPWSCYEL

T16: FMC63 Mimotope (C7) RLCPWACQEQ
T16 peptide: RLCPWACQEQ

T17: FMC63 Mimotope (H1) RVCPWSCMPI
T17 construct: Not the 1D3 mimotope that is also called H1
T17 peptide: RVCPWSCMPI

T18: FMC63 Mimotope (E6) RLCPWSCVPI
T18 peptide: RLCPWSCVPI

T19: FMC63 Mimotope (G11) RLCPWNCREL
T19 peptide: RLCPWNCREL

T20: FMC63 Mimotope (F12) RICPWNCKEL
T20 construct: also called F12 mimotope
T20 peptide: RICPWNCKEL

T21: FMC63 Mimotope (F8) RLCPWDCREL
T21 peptide: RLCPWDCREL

T22: FMC63 Mimotope (H8) RICPWACVEL
T22 peptide: RICPWACVEL

T23: FMC63 Mimotope (H11) RICPWSCREL
T23 peptide: RICPWSCREL

T24: FMC63 Mimotope (B7) RICPWSCMVV
T24 peptide: RICPWSCMVV

B1: FMC63 IgG (antibody, V domains shown)
VH: EVKLQESGPGLVAPSQSLSVTCTVSGVSLPDYGVSWIRQPPRKGLEWLGVIWGSETTYYNSALKSRLTIIKDNSKSQVFLKMNSLQTDDTAIYYCAKHYYYGGSYAMDYWGQGTSVTVSS
VL: DIQMTQTTSSLSASLGDRVTISCRASQDISKYLNWYQQKPDGTVKLLIYHTSRLHSGVPSRFSGSGSGTDYSLTISNLEQEDIATYFCQQGNTLPYTFGGGTKLEIT
notes: Murine monoclonal antibody to human CD19; also called FMC63 IgG antibody; biotinylated FMC63 IgG

What was measured:
FMC63 IgG = target: B1; experiment: ELISA with FMC63 IgG; ELISA with FMC63 IgG (FIG. 7); micromolar range
[1] = target: T1, FMC63 Mimotope Mutant RLCPWSAACREL; experiment: flow cytometry of yeast clones stained with FMC63 IgG; stacked histograms, no unstained control drawn
Procedure: (§1) Specifically, a representative mimotope, […] […] To generate mutations, two complementary oligos with the codon replaced at the desired site were denatured at 95° C. and annealed by slow cooling to 25° C. (decreasing by 0.5° C./second). The annealed oligos were treated with T4 PNK (T4 Polynucleotide Kinase) to add a terminal phosphate, and then ligated into digested pCT-CON2 vector. Positive clones having the correct oligo inserted were tested and transformed into competent EBY100 yeast cells.

[2] = target: T2, FMC63 Mimotope Mutant RLCPWSACREL; experiment: as above
Procedure: as §1

[3] = target: T3, biotinylated F12 mimotope RICPWNCKEL …; experiment: ELISA, biotinylated peptide on a streptavidin plate, OD(450nm) against the FMC63 IgG concentration (nM)
[4] = target: T4, biotinylated F12 derivative …; experiment: as above
[5] = target: T5, biotinylated F12 derivative …; experiment: as above
[6] = target: T6, biotinylated F12 derivative …; experiment: as above
[7] = target: T7, biotinylated F12 derivative …; experiment: as above
[8] = target: T8, biotinylated F12 derivative …; experiment: as above
[9] = target: T9, FMC63 Mimotope (G9) RLCPWSCREL; experiment: flow cytometry of yeast clones stained with FMC63 IgG (5 µM by paragraph 811); stacked histograms, no unstained control drawn
Procedure: as §1

[10] = target: T10, FMC63 Mimotope Mutant RLCPWSCREA; experiment: as above
Procedure: as §1

[11] = target: T11, FMC63 Mimotope Mutant RLCPWSCRAL; experiment: as above
Procedure: as §1

[12] = target: T12, FMC63 Mimotope Mutant RLCPWSCAEL; experiment: as above
Procedure: as §1

[13] = target: T13, FMC63 Mimotope Mutant RLCPWACREL; experiment: as above
Procedure: as §1

[14] = target: T14, FMC63 Mimotope Mutant RACPWSCREL; experiment: as above
Procedure: as §1

[15] = target: T15, FMC63 Mimotope (C5) RMCPWSCYEL; experiment: flow cytometry of yeast clones titrated with biotinylated FMC63 IgG, MFI (geometric mean); axis without unit, nM by the legend paragraph 211
[16] = target: T16, FMC63 Mimotope (C7) RLCPWACQEQ; experiment: as above
[17] = target: T17, FMC63 Mimotope (H1) RVCPWSCMPI; experiment: as above
[18] = target: T18, FMC63 Mimotope (E6) RLCPWSCVPI; experiment: as above
[19] = target: T19, FMC63 Mimotope (G11) RLCPWNCREL; experiment: as above
[20] = target: T20, FMC63 Mimotope (F12) RICPWNCKEL; experiment: as above
[21] = target: T21, FMC63 Mimotope (F8) RLCPWDCREL; experiment: as above
[22] = target: T22, FMC63 Mimotope (H8) RICPWACVEL; experiment: as above
[23] = target: T23, FMC63 Mimotope (H11) RICPWSCREL; experiment: as above
[24] = target: T24, FMC63 Mimotope (B7) RICPWSCMVV; experiment: as above

Kd (FMC63 IgG): ~1.4 µM
Binder: RHCPWNCSLL (disulfide 3-7 (inferred), Aga2p-HA-(G4S)3-AS-peptide, cf) [FMC63 Mimotope (A1) RHCPWNCSLL]

Binder: B1
binding result [1]: no binding | binding result [2]: no binding | binding result [3]: binds | binding result [4]: binds | binding result [5]: binds | binding result [6]: binds | binding result [7]: binds | binding result [8]: binds | binding result [9]: binds | binding result [10]: binds | binding result [11]: binds | binding result [12]: binds | binding result [13]: binds | binding result [14]: binds | binding result [15]: binds | binding result [16]: binds | binding result [17]: binds | binding result [18]: binds | binding result [19]: binds | binding result [20]: binds | binding result [21]: binds | binding result [22]: binds | binding result [23]: binds | binding result [24]: binds
